Assay [1] has as its target full-length human G-CSF receptor (human) (UniProt Q99062). The assay can be described thus: cell-based or functional assay.
Assay [2] has as its target endogenous IL-3 receptors of BaF3 cells (UniProt P26952). The assay can be described thus: cell-based or functional assay.

Data on 2 substances can be found in patent US7892733.

Chain of UniProt P26952 (P26952 17-396): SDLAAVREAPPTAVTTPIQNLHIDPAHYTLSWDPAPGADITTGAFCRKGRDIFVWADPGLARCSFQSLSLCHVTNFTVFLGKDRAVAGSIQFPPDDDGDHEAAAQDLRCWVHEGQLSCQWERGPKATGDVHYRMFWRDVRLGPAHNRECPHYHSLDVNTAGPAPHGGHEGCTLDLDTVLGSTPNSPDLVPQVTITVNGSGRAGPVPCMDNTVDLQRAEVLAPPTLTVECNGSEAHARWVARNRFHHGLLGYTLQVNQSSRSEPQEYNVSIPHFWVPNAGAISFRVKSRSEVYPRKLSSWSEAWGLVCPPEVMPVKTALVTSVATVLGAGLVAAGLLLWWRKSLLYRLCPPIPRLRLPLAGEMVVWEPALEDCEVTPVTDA
Chain of UniProt Q99062 (Q99062 25-836): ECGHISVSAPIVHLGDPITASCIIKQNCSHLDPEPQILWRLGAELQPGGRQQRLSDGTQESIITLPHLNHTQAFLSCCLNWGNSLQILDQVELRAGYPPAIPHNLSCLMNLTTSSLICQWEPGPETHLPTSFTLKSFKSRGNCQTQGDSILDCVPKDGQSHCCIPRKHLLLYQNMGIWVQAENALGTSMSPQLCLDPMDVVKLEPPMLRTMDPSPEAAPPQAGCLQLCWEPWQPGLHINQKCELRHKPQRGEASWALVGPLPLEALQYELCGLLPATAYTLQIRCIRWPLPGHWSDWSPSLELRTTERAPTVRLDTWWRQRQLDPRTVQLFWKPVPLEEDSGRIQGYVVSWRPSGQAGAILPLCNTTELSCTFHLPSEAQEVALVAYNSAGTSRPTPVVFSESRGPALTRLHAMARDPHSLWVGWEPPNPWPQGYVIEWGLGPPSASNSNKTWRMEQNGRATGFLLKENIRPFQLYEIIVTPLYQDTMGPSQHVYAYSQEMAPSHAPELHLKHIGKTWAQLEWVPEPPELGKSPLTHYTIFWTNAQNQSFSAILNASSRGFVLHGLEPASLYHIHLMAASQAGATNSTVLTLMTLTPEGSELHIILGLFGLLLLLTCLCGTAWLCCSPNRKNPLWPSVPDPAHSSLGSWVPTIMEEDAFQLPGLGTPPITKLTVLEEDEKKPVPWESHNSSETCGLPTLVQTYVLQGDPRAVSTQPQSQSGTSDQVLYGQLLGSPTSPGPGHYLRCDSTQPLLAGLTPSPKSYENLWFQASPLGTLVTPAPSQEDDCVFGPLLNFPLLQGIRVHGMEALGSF

With G-CSF (ligand), the luminescence output-fold stimulation over background (assay medium alone); luciferase reporter, HuG-CSFR-luc (clone 40) cells, 0.8 ng/mL and 5.0 ng/mL GCSF, four hours in assay [1] was 3 fold.

On to “recombinant murine interleukin-3 (from UniProt P01586 33-166) (ligand)”, for which, in assay [2], the PLAP reporter activity (4-MU fluorescence 360/460 nm), +IL-3, - filtration; 3X-RS-pGTPLAP in BaF3, 25 ng/ml rMuIL-3 is 85; the PLAP reporter activity, +IL-3, + filtration; 3X-RS-pGTPLAP in BaF3 is 82; the PLAP reporter activity, +IL-3, + filtration; 6X-RS-pGTPLAP in BaF3 was 177; the PLAP reporter activity, +IL-3, + filtration; 9X-RS-pGTPLAP in BaF3 amounted to 257. In assay [2], the PLAP reporter activity, +IL-3, + filtration; 12X-RS-pGTPLAP in BaF3 came out at 384; the PLAP reporter activity, +IL-3, + filtration; Greater than 12X-RS-pGTPLAP in BaF3 is 389; the PLAP reporter activity, +IL-3, - filtration; 6X-RS-pGTPLAP in BaF3 is 175; the PLAP reporter activity, +IL-3, - filtration; 9X-RS-pGTPLAP in BaF3 stood at 276. Besides, in assay [2], the PLAP reporter activity, +IL-3, - filtration; 12X-RS-pGTPLAP in BaF3 amounted to 402; the PLAP reporter activity, +IL-3, - filtration; Greater than 12X-RS-pGTPLAP in BaF3 was found to be 384; the PLAP reporter activity, +IL-3, average - baseline; 3X-RS-pGTPLAP in BaF3 was determined as 70; the PLAP reporter activity, +IL-3, average - baseline; 6X-RS-pGTPLAP in BaF3 was determined as 160. For the same substance, in assay [2], the PLAP reporter activity, +IL-3, average - baseline; 9X-RS-pGTPLAP in BaF3 was found to be 250; the PLAP reporter activity, +IL-3, average - baseline; 12X-RS-pGTPLAP in BaF3 was 375; the PLAP reporter activity, +IL-3, average - baseline; Greater than 12X-RS-pGTPLAP in BaF3 was determined as 370; the fold stimulation (avg +IL-3 / avg -IL-3); 3X-RS-pGTPLAP in BaF3 was 3.5 fold. Also, in assay [2], the fold stimulation (avg +IL-3 / avg -IL-3); 6X-RS-pGTPLAP in BaF3 came out at 5.4 fold, the fold stimulation (avg +IL-3 / avg -IL-3); 9X-RS-pGTPLAP in BaF3 is 6.2 fold, the fold stimulation (avg +IL-3 / avg -IL-3); 12X-RS-pGTPLAP in BaF3 came out at 8.4 fold and the fold stimulation (avg +IL-3 / avg -IL-3); Greater than 12X-RS-pGTPLAP in BaF3 came out at 11.2 fold.
